Drawing on publication PMC314469, “Protein Interaction Networks by Proteome Peptide Scanning” (PLoS Biology, 2004), this text covers normalised SPOT signal, Boehringer light units (BLU); mean over the file's lines of this peptide for 54 molecules.

To fix the notation:
T1: Abp1 SH3 (ABP1_YEAST), P15891
T1 chain: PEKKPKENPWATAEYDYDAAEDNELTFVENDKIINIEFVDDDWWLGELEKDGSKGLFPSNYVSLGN

This test concerns the target T1, Abp1 SH3 (ABP1_YEAST), P15891. Description: SPOT array.
Turning to YFPSKTVGSHPRKP [YPL162C 135-148], the normalised SPOT signal, Boehringer light units (BLU); mean over the file's lines of this peptide was found to be 311.

Consider AAAPDVKPHDTKP [YPR125W 432-444], for which the normalised SPOT signal, Boehringer light units (BLU); mean over the file's lines of this peptide was determined as 45.6.

Regarding WRSKRIEQLFPVRP [YDL150W 191-204], the normalised SPOT signal, Boehringer light units (BLU); mean over the file's lines of this peptide was found to be 201.

In the case of YASALKEMTHPIKP [YLR239C 24-37], the normalised SPOT signal, Boehringer light units (BLU); mean over the file's lines of this peptide was found to be 34.2.

Molecule YDVIEVVPEPGKP [YDR301W 1057-1069] displayed a normalised SPOT signal, Boehringer light units (BLU); mean over the file's lines of this peptide of 37.

On to YYRLDALPKDGKP [YGL245W 693-705], for which the normalised SPOT signal, Boehringer light units (BLU); mean over the file's lines of this peptide was determined as 219.

The molecule YYNDLSYYLRPIKP [Q0115 375-388] displayed a normalised SPOT signal, Boehringer light units (BLU); mean over the file's lines of this peptide of 128.

Take YNPYGISPNHARP [YJR059W 184-196]: the normalised SPOT signal, Boehringer light units (BLU); mean over the file's lines of this peptide amounted to 223.

With YQKTFKLPWDPRP [YBL086C 310-322], the normalised SPOT signal, Boehringer light units (BLU); mean over the file's lines of this peptide was determined as 155.

As for AGPKPSISLVPDKP [YLR189C 14-27], the normalised SPOT signal, Boehringer light units (BLU); mean over the file's lines of this peptide came to 233.

With YASPMYDFLYPFRP [YOR002W 18-31], the normalised SPOT signal, Boehringer light units (BLU); mean over the file's lines of this peptide was found to be 179.

AAVPTKTIASPQRP [YOR227W 52-65] displayed a normalised SPOT signal, Boehringer light units (BLU); mean over the file's lines of this peptide of 243.

Molecule YRLLRLLPHASRP [YOR267C 685-697] displayed a normalised SPOT signal, Boehringer light units (BLU); mean over the file's lines of this peptide of 64.

Take YKWTIPQPIGRRP [YGR238C 182-194]: the normalised SPOT signal, Boehringer light units (BLU); mean over the file's lines of this peptide came to 3200.

AAADSVSPDSQRP [YLL027W 53-65] showed a normalised SPOT signal, Boehringer light units (BLU); mean over the file's lines of this peptide of 182.

For YAEILKNRMNPEKP [YBL034C 847-860], the normalised SPOT signal, Boehringer light units (BLU); mean over the file's lines of this peptide turned out to be 100.

Regarding AAYNAKKAAKPAKP [YAL003W 104-117], the normalised SPOT signal, Boehringer light units (BLU); mean over the file's lines of this peptide is 109.

Molecule YKVYFSTPRDVKP [YBR024W 225-237] yielded a normalised SPOT signal, Boehringer light units (BLU); mean over the file's lines of this peptide of 114.

For the molecule YFTSSYFPDDRRP [YKL004W 102-114], the normalised SPOT signal, Boehringer light units (BLU); mean over the file's lines of this peptide came to 304.

Regarding YDNKVEEGSKPKKP [YOR168W 668-681], the normalised SPOT signal, Boehringer light units (BLU); mean over the file's lines of this peptide stood at 140.

Molecule YVTFTTIPYKEKP [YCL058C 12-24] came in with a normalised SPOT signal, Boehringer light units (BLU); mean over the file's lines of this peptide of 70.4.

In turn, WIRSTLNHIIPRRP [YML061C 4-17] showed a normalised SPOT signal, Boehringer light units (BLU); mean over the file's lines of this peptide of 66.3.

AGDDEPGADEPARP [YOL073C 298-311] gave a normalised SPOT signal, Boehringer light units (BLU); mean over the file's lines of this peptide of 27.3.

For the molecule YTNMNSLVATPMKP [YHR015W 541-554], the normalised SPOT signal, Boehringer light units (BLU); mean over the file's lines of this peptide was 145.

On to YYVSKRVPVKNRP [YNL023C 118-130], for which the normalised SPOT signal, Boehringer light units (BLU); mean over the file's lines of this peptide came to 211.

On to YNESAPLQPFPERP [YFL041W 454-467], for which the normalised SPOT signal, Boehringer light units (BLU); mean over the file's lines of this peptide stood at 15.5.

The molecule WRYLPAPPVSIRP [YOR116C 258-270] registered a normalised SPOT signal, Boehringer light units (BLU); mean over the file's lines of this peptide of 1240.

As to ASVEQFDLKMPSKP [YLR055C 485-498], the normalised SPOT signal, Boehringer light units (BLU); mean over the file's lines of this peptide was 112.

YNYSFQFDKFPRKP [YLR392C 110-123] gave a normalised SPOT signal, Boehringer light units (BLU); mean over the file's lines of this peptide of 275.

For YEATPFDPITVKP [YNL330C 3-15], the normalised SPOT signal, Boehringer light units (BLU); mean over the file's lines of this peptide was 62.3.

Regarding YYSASPLPASKRP [YMR108W 43-55], the normalised SPOT signal, Boehringer light units (BLU); mean over the file's lines of this peptide worked out at 144.

YKPWSAWSYLPPKP [YDL035C 229-242] came in with a normalised SPOT signal, Boehringer light units (BLU); mean over the file's lines of this peptide of 208.

Turning to YRVYFSTPPNVKP [YBR037C 219-231], the normalised SPOT signal, Boehringer light units (BLU); mean over the file's lines of this peptide stood at 138.

Take ADDSFIFPDEDKP [YNL103W 152-164]: the normalised SPOT signal, Boehringer light units (BLU); mean over the file's lines of this peptide was determined as 61.8.

Molecule AGGGIWGPMEKKP [YHR093W 43-55] registered a normalised SPOT signal, Boehringer light units (BLU); mean over the file's lines of this peptide of 120.

With AAPNSNVPTNERP [YGL122C 485-497], the normalised SPOT signal, Boehringer light units (BLU); mean over the file's lines of this peptide was 146.

In turn, YIRNAVKENFPEKP [YBR137W 45-58] displayed a normalised SPOT signal, Boehringer light units (BLU); mean over the file's lines of this peptide of 118.

As to YYVLNPNNKQPIKP [YNL076W 85-98], the normalised SPOT signal, Boehringer light units (BLU); mean over the file's lines of this peptide turned out to be 82.3.

Take YTPTSSQPRPPPRP [YGR268C 67-80]: the normalised SPOT signal, Boehringer light units (BLU); mean over the file's lines of this peptide was found to be 532.

In the case of AEGNVKPWNPPQKP [YLR295C 56-69], the normalised SPOT signal, Boehringer light units (BLU); mean over the file's lines of this peptide is 160.

Consider YSRQAIPPPVPNRP [YLR144C 3-16], for which the normalised SPOT signal, Boehringer light units (BLU); mean over the file's lines of this peptide is 1840.

AAAAPPLPSDVRP [YDR159W 245-257] showed a normalised SPOT signal, Boehringer light units (BLU); mean over the file's lines of this peptide of 60.6.

ADQRKLFPNWIKP [YHR165C 1003-1015] showed a normalised SPOT signal, Boehringer light units (BLU); mean over the file's lines of this peptide of 456.

Molecule YKWTVPAPVGPRP [YHR158C 222-234] yielded a normalised SPOT signal, Boehringer light units (BLU); mean over the file's lines of this peptide of 1300.

In turn, AHLSAADPDFYKP [YOR153W 112-124] registered a normalised SPOT signal, Boehringer light units (BLU); mean over the file's lines of this peptide of 94.4.

YYRELLSFLSPGKP [YML005W 156-169]: the normalised SPOT signal, Boehringer light units (BLU); mean over the file's lines of this peptide turned out to be 59.8.

YLNESFVMQQPIKP [YGR067C 417-430] had a normalised SPOT signal, Boehringer light units (BLU); mean over the file's lines of this peptide of 179.

In turn, AAELGNNALPPTKP [YNR046W 63-76] showed a normalised SPOT signal, Boehringer light units (BLU); mean over the file's lines of this peptide of 86.6.

WSIKLWDLSKPSKP [YAR003W 94-107] gave a normalised SPOT signal, Boehringer light units (BLU); mean over the file's lines of this peptide of 135.

The molecule YPQMLALPIARRP [YBL022C 179-191] gave a normalised SPOT signal, Boehringer light units (BLU); mean over the file's lines of this peptide of 8030.

In the case of YKDSFYKEMTPSKP [YOR177C 24-37], the normalised SPOT signal, Boehringer light units (BLU); mean over the file's lines of this peptide was 164.

Consider YEHLTSVKIVPQRP [YAL054C 40-53], for which the normalised SPOT signal, Boehringer light units (BLU); mean over the file's lines of this peptide turned out to be 113.

The molecule WTLNKDKIAHPVRP [YBR276C 624-637] registered a normalised SPOT signal, Boehringer light units (BLU); mean over the file's lines of this peptide of 1090.

As to YTDNDDYPELDRP [YOR292C 157-169], the normalised SPOT signal, Boehringer light units (BLU); mean over the file's lines of this peptide stood at 140.
